Positions count from the first letter of the chain named. Numbers in names are those of the source. Where “and” joins values, the source holds several entries; their conditions need not be identical. Equal values may be shown once. Blank lines part the entries; values can stand above or below the binder they belong to.
Assays:
[1] = molecular target: ErbB4 on neonatal rat cardiomyocytes (rat) (UniProt Q62956); assay: cell-based or functional assay
[2] = molecular target: ErbB3 on rat Schwann cells (rat) (UniProt Q62799); assay: cell-based or functional assay
Chain of ErbB3 on rat Schwann cells (rat) (Q62799 20-1339): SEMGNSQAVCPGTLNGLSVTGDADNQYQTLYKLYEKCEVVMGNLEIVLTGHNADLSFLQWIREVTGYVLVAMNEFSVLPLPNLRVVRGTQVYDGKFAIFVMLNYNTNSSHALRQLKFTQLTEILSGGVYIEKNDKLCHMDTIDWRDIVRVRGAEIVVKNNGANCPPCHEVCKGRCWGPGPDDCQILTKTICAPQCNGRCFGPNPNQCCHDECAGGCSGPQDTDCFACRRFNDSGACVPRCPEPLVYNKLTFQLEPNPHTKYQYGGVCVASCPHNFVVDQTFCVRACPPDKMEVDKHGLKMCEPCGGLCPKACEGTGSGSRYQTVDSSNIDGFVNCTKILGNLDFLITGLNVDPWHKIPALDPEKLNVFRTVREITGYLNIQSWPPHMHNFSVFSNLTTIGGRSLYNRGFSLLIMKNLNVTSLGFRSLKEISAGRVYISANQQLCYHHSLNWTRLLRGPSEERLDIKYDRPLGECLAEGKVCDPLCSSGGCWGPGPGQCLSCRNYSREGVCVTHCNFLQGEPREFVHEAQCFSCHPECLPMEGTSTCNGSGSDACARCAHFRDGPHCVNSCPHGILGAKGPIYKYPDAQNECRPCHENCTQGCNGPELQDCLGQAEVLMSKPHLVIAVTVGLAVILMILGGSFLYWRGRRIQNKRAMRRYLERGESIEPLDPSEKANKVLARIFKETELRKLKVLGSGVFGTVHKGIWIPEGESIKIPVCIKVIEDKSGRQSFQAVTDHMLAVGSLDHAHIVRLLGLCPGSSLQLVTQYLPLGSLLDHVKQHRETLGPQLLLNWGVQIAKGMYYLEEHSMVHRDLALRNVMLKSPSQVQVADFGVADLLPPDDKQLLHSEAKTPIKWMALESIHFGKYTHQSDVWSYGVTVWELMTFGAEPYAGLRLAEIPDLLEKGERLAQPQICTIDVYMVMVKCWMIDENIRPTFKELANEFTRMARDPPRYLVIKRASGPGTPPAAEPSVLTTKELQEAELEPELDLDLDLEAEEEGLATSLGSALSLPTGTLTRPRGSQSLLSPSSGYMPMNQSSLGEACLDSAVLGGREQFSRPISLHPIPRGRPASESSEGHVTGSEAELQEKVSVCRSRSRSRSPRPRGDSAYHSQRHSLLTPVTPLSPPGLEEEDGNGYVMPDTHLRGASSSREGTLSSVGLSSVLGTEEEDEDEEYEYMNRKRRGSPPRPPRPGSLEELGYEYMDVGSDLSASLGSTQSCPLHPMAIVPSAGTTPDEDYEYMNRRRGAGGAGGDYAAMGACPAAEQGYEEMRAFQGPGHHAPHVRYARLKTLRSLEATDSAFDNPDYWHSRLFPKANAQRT

Chain of ErbB4 on neonatal rat cardiomyocytes (rat) (Q62956 26-1308): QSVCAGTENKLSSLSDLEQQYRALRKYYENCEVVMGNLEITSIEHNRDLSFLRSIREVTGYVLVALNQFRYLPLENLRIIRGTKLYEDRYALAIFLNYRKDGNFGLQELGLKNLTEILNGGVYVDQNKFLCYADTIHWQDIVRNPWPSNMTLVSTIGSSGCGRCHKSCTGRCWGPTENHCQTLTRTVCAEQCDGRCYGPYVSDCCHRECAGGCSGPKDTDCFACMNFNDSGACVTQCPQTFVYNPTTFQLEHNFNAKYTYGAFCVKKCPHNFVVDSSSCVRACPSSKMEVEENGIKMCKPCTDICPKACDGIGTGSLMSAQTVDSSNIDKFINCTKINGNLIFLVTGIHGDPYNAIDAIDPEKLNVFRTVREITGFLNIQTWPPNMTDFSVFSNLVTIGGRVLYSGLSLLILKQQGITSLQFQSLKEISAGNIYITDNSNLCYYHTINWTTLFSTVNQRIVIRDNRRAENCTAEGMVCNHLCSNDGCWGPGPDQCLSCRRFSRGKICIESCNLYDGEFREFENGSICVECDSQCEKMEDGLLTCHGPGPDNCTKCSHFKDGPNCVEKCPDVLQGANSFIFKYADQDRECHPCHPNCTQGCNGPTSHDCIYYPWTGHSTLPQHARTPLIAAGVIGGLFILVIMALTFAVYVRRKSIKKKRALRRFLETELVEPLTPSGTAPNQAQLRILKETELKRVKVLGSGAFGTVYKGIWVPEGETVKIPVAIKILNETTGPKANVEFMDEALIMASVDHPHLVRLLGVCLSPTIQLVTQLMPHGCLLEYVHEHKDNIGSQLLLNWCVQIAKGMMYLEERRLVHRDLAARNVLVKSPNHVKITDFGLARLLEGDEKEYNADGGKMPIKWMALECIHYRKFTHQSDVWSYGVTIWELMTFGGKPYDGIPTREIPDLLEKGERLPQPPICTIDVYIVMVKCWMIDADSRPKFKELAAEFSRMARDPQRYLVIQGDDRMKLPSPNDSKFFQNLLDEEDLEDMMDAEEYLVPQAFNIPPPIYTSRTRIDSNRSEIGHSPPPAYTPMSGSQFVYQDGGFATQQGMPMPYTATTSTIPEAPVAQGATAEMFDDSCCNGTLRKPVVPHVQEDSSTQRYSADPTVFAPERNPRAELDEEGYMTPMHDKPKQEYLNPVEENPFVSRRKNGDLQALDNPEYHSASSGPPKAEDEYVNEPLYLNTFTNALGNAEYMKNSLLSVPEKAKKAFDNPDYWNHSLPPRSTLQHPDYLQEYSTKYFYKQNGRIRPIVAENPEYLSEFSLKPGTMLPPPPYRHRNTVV

B1: huNRG1(S177-Q237)(NRGE1F)::GG::huFcSEFL2 (Pb) (Fc fusion)
chain: SHLVKCAENDKSFCVNGGECYMVEGSSIPSRYLCKCPNEFTGDRCQNDFMASFYKAEELYQGGDKTHTCPPCPAPELLGGPSVFLFPPKPKDTLMISRTPEVTCVVVDVSHEDPEVKFNWYVDGVEVHNAKTKPCEEQYGSTYRCVSVLTVLHQDWLNGKEYKCKVSNKALPAPIEKTISKAKGQPREPQVYTLPPSREEMTKNQVSLTCLVKGFYPSDIAVEWESNGQPENNYKTTPPVLDSDGSFFLYSKLTVDKSRWQQGNVFSCSVMHEALHNHYTQKSLSLSPGK
CM % Agonism AVG [1]: 90% | Cardiomyocyte (CM) (ErbB4) Avg EC50 [1]: 0.65 nM | Selectivity SC/CM [1]: > 10000 | Schwann cells (SC) (ErbB3) Avg EC50 [2]: > 10000 nM

B5: huNRG1(S177-Q237)(NRGE1E)::GG::huFcSEFL2 (Pb) (Fc fusion)
chain: B1 chain with A7G, Y21F, V23I, S26P, I28N
CM % Agonism AVG [1]: 83% | Cardiomyocyte (CM) (ErbB4) Avg EC50 [1]: 0.995 nM | Selectivity SC/CM [1]: > 10000 | Schwann cells (SC) (ErbB3) Avg EC50 [2]: > 10000 nM

B7: huNRG1(S177-Q237)(NRGE1C)::GG::huFcSEFL2 (Pb) (Fc fusion)
chain: B1 chain with A7G, N9K, D10H, Y21F, V23I, S26P, I28N, N47E
CM % Agonism AVG [1]: 82% | Cardiomyocyte (CM) (ErbB4) Avg EC50 [1]: 0.476 nM and 0.41 nM | Selectivity SC/CM [1]: > 10000 | Schwann cells (SC) (ErbB3) Avg EC50 [2]: > 10000 nM

B9: huNRG1(S177-Q237)(1D4)::GG::huFcSEFL2 (Pb) (Fc fusion)
chain: B1 chain with A7G, N9R, S12T, M22V, G25H, I28N, N47K, D48F, M50L
Cardiomyocyte (CM) (ErbB4) Avg EC50 [1]: 0.924 nM and 0.576 nM

B10: :huFcSEFL2(desK)vl31(+):G4SG4:huNRG1(S177-F229)(NRGE1C) (Fc fusion)
chain: DKTHTCPPCPAPELLGGPSVFLFPPKPKDTLMISRTPEVTCVVVDVSHEDPEVKFNWYVDGVEVHNAKTKPCEEQYGSTYRCVSVLTVLHQDWLNGKEYKCKVSNKALPAPIEKTISKAKGQPREPQVYTLPPSREKMTKNQVSLTCLVKGFYPSDIAVEWESNGQPENNYKTTPPVLKSDGSFFLYSKLTVDKSRWQQGNVFSCSVMHEALHNHYTQKSLSLSPGGGGGSGGGGSHLVKCGEKHKSFCVNGGECFMIEGPSNPSRYLCKCPNEFTGDRCQEDFMASFDKTHTCPPCPAPELLGGPSVFLFPPKPKDTLMISRTPEVTCVVVDVSHEDPEVKFNWYVDGVEVHNAKTKPCEEQYGSTYRCVSVLTVLHQDWLNGKEYKCKVSNKALPAPIEKTISKAKGQPREPQVYTLPPSREEMTENQVSLTCLVEGFYPSDIAVEWESNGQPENNYETTPPVLDSDGSFFLYSDLTVDKSRWQQGNVFSCSVMHEALHNHYTQKSLSLSPGK
CM % Agonism AVG [1]: 62.7% | Cardiomyocyte (CM) (ErbB4) Avg EC50 [1]: 6.4 nM | Selectivity SC/CM [1]: > 10000

B11: :huFcSEFL2(desK)vl31(+):G4SG4:huNRG1(S177-F229)(NRGE1D) (Fc fusion)
chain: B10 chain with K244S, F256Y, I258V, P261S, N263I
CM % Agonism AVG [1]: 72.3% | Cardiomyocyte (CM) (ErbB4) Avg EC50 [1]: 4.3 nM | Selectivity SC/CM [1]: > 10000

B12: :huNRG1(S177-F229)(NRGE1C)::2X(G4A)G4::huFcSEFL2v131(+) (Fc fusion)
chain: SHLVKCGEKHKSFCVNGGECFMIEGPSNPSRYLCKCPNEFTGDRCQEDFMASFGGGGAGGGGAGGGGDKTHTCPPCPAPELLGGPSVFLFPPKPKDTLMISRTPEVTCVVVDVSHEDPEVKFNWYVDGVEVHNAKTKPCEEQYGSTYRCVSVLTVLHQDWLNGKEYKCKVSNKALPAPIEKTISKAKGQPREPQVYTLPPSREKMTKNQVSLTCLVKGFYPSDIAVEWESNGQPENNYKTTPPVLKSDGSFFLYSKLTVDKSRWQQGNVFSCSVMHEALHNHYTQKSLSLSPGKDKTHTCPPCPAPELLGGPSVFLFPPKPKDTLMISRTPEVTCVVVDVSHEDPEVKFNWYVDGVEVHNAKTKPCEEQYGSTYRCVSVLTVLHQDWLNGKEYKCKVSNKALPAPIEKTISKAKGQPREPQVYTLPPSREEMTENQVSLTCLVEGFYPSDIAVEWESNGQPENNYETTPPVLDSDGSFFLYSDLTVDKSRWQQGNVFSCSVMHEALHNHYTQKSLSLSPGK
CM % Agonism AVG [1]: 91.6% | Cardiomyocyte (CM) (ErbB4) Avg EC50 [1]: 3.4 nM | Selectivity SC/CM [1]: > 10000

B13: :huNRG1(S177-F229)(NRGE1C)::2X(G4E)G4::huFcSEFL2v131(+) (Fc fusion)
chain: B12 chain with A58E, A63E
CM % Agonism AVG [1]: 94% | Cardiomyocyte (CM) (ErbB4) Avg EC50 [1]: 2.9 nM | Selectivity SC/CM [1]: > 10000

B14: :huNRG1(S177-F229)(NRGE1D)::2X(G4A)G4::huFcSEFL2v131(+) (Fc fusion)
chain: B12 chain with K9S, F21Y, I23V, P26S, N28I
CM % Agonism AVG [1]: 87.1% | Cardiomyocyte (CM) (ErbB4) Avg EC50 [1]: 2 nM | Selectivity SC/CM [1]: > 10000

B15: :huNRG1(S177-F229)(NRGE1D)::2X(G4E)G4::huFcSEFL2v131(+) (Fc fusion)
chain: B12 chain with K9S, F21Y, I23V, P26S, N28I, A58E, A63E
CM % Agonism AVG [1]: 91.9% | Cardiomyocyte (CM) (ErbB4) Avg EC50 [1]: 1.9 nM | Selectivity SC/CM [1]: > 10000

Continued, values first:

CM % Agonism AVG [1]: 66% | Cardiomyocyte (CM) (ErbB4) Avg EC50 [1]: 7.54 nM | Selectivity SC/CM [1]: 1320 | Schwann cells (SC) (ErbB3) Avg EC50 [2]: > 10000 nM
B2: huNRG1(S177-Q237)(NRGE1K)::GG::huFcSEFL2 (Pb) (Fc fusion)
chain: B1 chain with N9K, D10H, Y21F, V23I, S26P, I28N, N47D

CM % Agonism AVG [1]: 88% | Cardiomyocyte (CM) (ErbB4) Avg EC50 [1]: 0.286 nM | Selectivity SC/CM [1]: > 10000 | Schwann cells (SC) (ErbB3) Avg EC50 [2]: > 10000 nM
B3: huNRG1(S177-Q237)(NRGE1H)::GG::huFcSEFL2 (Pb) (Fc fusion)
chain: B1 chain with A7G, N9S, D10H, Y21F, V23I, S26P, I28N

CM % Agonism AVG [1]: 26% | Cardiomyocyte (CM) (ErbB4) Avg EC50 [1]: 1.73 nM | Selectivity SC/CM [1]: 435 | Schwann cells (SC) (ErbB3) Avg EC50 [2]: 751 nM
B4: huNRG1(S177-Q237)(NRGE1N)::GG::huFcSEFL2 (Pb) (Fc fusion)
chain: B1 chain with A7G, N47D, D48F

CM % Agonism AVG [1]: 27% | Cardiomyocyte (CM) (ErbB4) Avg EC50 [1]: 1.04 nM | Selectivity SC/CM [1]: 526 | Schwann cells (SC) (ErbB3) Avg EC50 [2]: 546 nM
B6: huNRG1(S177-Q237)(NRGE1O)::GG::huFcSEFL2 (Pb) (Fc fusion)
chain: B1 chain with A7G, N9K, D10H, N47D, D48F

CM % Agonism AVG [1]: 68% | Cardiomyocyte (CM) (ErbB4) Avg EC50 [1]: 14.1 nM | Selectivity SC/CM [1]: 710 | Schwann cells (SC) (ErbB3) Avg EC50 [2]: > 10000 nM
B8: huNRG1(S177-Q237)(NRGE1J)::GG::huFcSEFL2 (Pb) (Fc fusion)
chain: B1 chain with A7G, N47D
